Sequences and labels used below:
B1: MipZ (wild type), hexahistidine-tagged [Caulobacter crescentus] / itself (parent)
chain: MAETRVIVVGNEKGGAGKSTIAVHLVTALLYGGAKVAVIDLDLRQRTSARFFENRRAWLDNKKIELPEPLALNLSDNDVALAERPEEEQVAGFEAAFARAMAECDFILIDTPGGDSAITRMAHGRADLVVTPMNDSFVDFDMLGTVDPVTLELTKPSLYSLTVWEGRKQRALSGQRQAMDWVVLRNRLATTEARNRKRLEDRLNALAKRVGFRIGPGLRDRVIYRELFPFGLTIADLSPQVRPVPVSLQHLAARQELRALMHSLGLSAYSGETMLAAQ

One experiment covers variants of B1. The experiment can be described thus: SPR. As to conditions: with itself; 3500 RU immobilized protein; 0.5 μM soluble protein; + ATP; parent: 370; read off a plot.
chain 1 D42A: the response worked out at 910 RU.

The same experiment, now with this note: with itself; 3500 RU immobilized protein; 0.5 μM soluble protein; ATP in the binding phase; wash with buffer lacking protein and nucleotides.
As for chain 1 D42A, the off-rate (koff) (in general, the first-order rate constant of dissociation) turned out to be 0.00112 s⁻¹.

The values are drawn from paper PMC3355305, “Localized Dimerization and Nucleoid Binding Drive Gradient Formation by the Bacterial Cell Division Inhibitor MipZ” (Molecular Cell, 2012).
